Experimental data as given in article PMC5558740.

Biological target: CX3CR1 2-21 (UniProt P49238)
Assay: affinity chromatography on CX3CR1 peptide-Sepharose, dot blot
Conditions: reference: Tau42 not phosphorylated; sites S396

Chain of CX3CR1 2-21 (P49238 whole entry, looked up, tested part not stated): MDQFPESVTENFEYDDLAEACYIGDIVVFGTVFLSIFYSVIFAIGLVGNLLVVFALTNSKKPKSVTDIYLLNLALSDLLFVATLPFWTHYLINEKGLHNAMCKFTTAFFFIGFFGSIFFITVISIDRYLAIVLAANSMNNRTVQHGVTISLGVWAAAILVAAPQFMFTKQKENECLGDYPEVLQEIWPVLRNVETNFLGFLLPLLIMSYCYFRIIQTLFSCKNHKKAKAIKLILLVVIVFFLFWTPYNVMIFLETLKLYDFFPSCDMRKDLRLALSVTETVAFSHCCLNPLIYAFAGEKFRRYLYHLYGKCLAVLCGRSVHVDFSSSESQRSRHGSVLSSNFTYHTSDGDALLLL

## Tau (Tau42) (from UniProt P10636-8) Tau42 phosphorylated by GSK-3β
  other: elution fraction number: weaker; reference 4
